This note sets out measurements from US20230348630A1 (BEIJING MABWORKS BIOTECH, published 2023).

Like-named read-outs stand apart in the source and are kept apart here.

Test [1] concerns the target T1, BCMA-his protein (Cat #: BCA-H522y, ACRO) (human, UniProt Q02223 1-54).
T1 construct: Bought recombinant protein; the construct is most likely only a soluble part of it; also called BCMA protein; human BCMA
T1 sequence: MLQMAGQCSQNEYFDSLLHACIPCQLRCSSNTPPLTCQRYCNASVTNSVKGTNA
Put plainly: ELISA, coated BCMA protein. As for the experimental part: Briefly, an ELISA plate was coated with 100 μl 1 μg/ml BCMA protein (Cat #: BCA-H522y, ACRO) in PBS overnight at 4° C. Then, the plate was blocked with 250 μl PBST with 4% skimmed milk at room temperature for 1 h. […] The negative control well was added with PBST instead of the antibody. The plate was washed with PBST for three times, added with 100 μl HRP conjugated goat anti-human IgG (1:7000, Cat #: 31413, thermofisher), and incubated at room temperature for 1 h. The plate was washed again with PBST for four times, added with 100 μl freshly prepared TMB (Cat #: 555214, BD, USA), and left still for color development, which was terminated with 50 μl 10% H₂SO₄. The absorbance was read at 450 nm, and the data was processed and analyzed using GraphPad.
(§1) The purified bispecific antibodies were tested for their binding capability to recombinant human CD3 and human BCMA proteins by ELISA, following the protocols in Example 4 and Example 9.
Background: ELISA stands for enzyme-linked immunosorbent assay.

Test [2] has as its target T2, CD3D&E protein (Cat #: CT038-H2508H, Sino Biological) (human, UniProt P04234 22-105; P07766 23-126).
T2 construct: Bought complex of the delta and epsilon chains; also called CD3D&E complex; human CD3D&E complex
Briefly: ELISA, coated CD3D&E. As for the experimental part:
as §1

For test [3], the target named is T3, human BCMA on HEK293A/human BCMA cells (human, UniProt Q02223 1-184).
T3 sequence: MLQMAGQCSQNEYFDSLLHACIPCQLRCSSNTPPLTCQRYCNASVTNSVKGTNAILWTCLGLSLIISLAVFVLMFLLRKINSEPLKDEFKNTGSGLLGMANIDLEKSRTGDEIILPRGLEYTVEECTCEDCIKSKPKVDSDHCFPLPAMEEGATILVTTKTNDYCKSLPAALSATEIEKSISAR
Briefly: flow cytometry on HEK293A/human BCMA cells. Here is the method: (§2) The anti-BCMA antibody's binding capability to cell surface BCMAs was tested by FACS. Briefly, HEK293A/human BCMA cells, HEK293A/monkey BCMA cells and HEK293A/mouse BCMA cells, as generated in Example 1, were collected, digested with trypsin, and subjected to centrifugation at 300 g for 5 min. The cells were suspended in PBS, and subjected to centrifugation again. The cells were re-suspended in PBS with 2% FBS at the cell density at 4×10⁶/ml, and 50 μl cells were seeded onto a U-bottom plate. […] The plate was washed with 2% FBS-PBS for three times, added with 50 μl PE-labeled goat-anti-human IgG (H+L) (1: 500), and incubated at room temperature for 45 min. The plate was washed with 2% FBS-PBS again for three times, and added with 150 μl 2% FBS-PBS to suspend the cells. The plate was measured for cell fluorescence using a cytometry, and the data was processed with FlowJo and analyzed with GraphPad.
(§3) Following the protocol of Example 6, the bispecific antibodies of the disclosure were tested for their binding capability to the HEK293A/human BCMA cells, HEK293A/monkey BCMA cells, and HEK293A/mouse BCMA cells as generated in Example 1.

Test [4] deals with T4, CD3 on Jurkat cells (UniProt P04234 22-171; P07766 23-207).
T4 construct: whole, on cells
Briefly: flow cytometry on Jurkat cells. As for the experimental part: (§4) Jurkat cells were collected, centrifuged at 300 g for 5 min, and suspended in PBS. After another centrifugation, the cells were suspended in 2% FBS-PBS at the cell density of 3×10⁶/ml, and […] were plated onto a U-bottom plate. The plate was added with 50 μl serially diluted anti-CD3 antibodies of the disclosure in 2% FBS-PBS (4-fold dilution, starting at 20 μg/ml), and incubated at room temperature for 1 h. The plate was washed with 2% FBS-PBS for three times, added with 50 μl PE-labeled goat-anti-human IgG (H+L) (1: 500), and incubated at room temperature for 45 min. The plate was washed with 2% FBS-PBS again for three times, and added with 150 μl 2% FBS-PBS to suspend the cells. The plate was measured for cell fluorescence using a cytometry, and the data was processed with FlowJo and analyzed with GraphPad.
Following the protocol of Example 11, the bispecific antibodies of the disclosure were tested for their binding capability to Jurkat cells.

Test [5] deals with T5, mouse BCMA on HEK293A/mouse BCMA cells (mouse, UniProt O88472 1-185).
T5 sequence: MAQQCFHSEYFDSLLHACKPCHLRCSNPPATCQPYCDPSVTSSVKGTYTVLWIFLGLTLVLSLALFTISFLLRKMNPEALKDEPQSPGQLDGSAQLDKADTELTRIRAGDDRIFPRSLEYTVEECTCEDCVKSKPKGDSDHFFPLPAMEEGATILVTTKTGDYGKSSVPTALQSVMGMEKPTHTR
Briefly: flow cytometry on HEK293A/mouse BCMA cells [continued) F]. Here is the method:
as §2, §3

For test [6], the target named is T2, CD3D&E protein (Cat #: CT038-H2508H, …). Briefly: SPR (BIAcore 8K), protocol of Example 10. As for the experimental part: Following the protocols in Example 5 and Example 10, the bispecific antibodies of the disclosure were tested for their binding affinity to CD3D&E and human BCMA.
For orientation: SPR reads the build-up and loss of mass on a sensor chip optically.

The target of test [7] is monkey BCMA on HEK293A/monkey BCMA cells (monkey, UniProt Q02223 1-184 (human entry)). Put plainly: flow cytometry on HEK293A/monkey BCMA cells. As for the experimental part: as §2, §3
The target in test [8] is T6, CD3E protein (Cat #: 10977-H08S, Sino Biological) (UniProt P07766 23-126).
T6 construct: also called CD3ε
Put plainly: SPR (BIAcore 8K), CD3E coupled to the chip, antibody as analyte. As for the experimental part: For the test regarding binding affinity to CD3E (Cat #: 10977-H08S, Sino Biological), the CD3E molecules were coupled to a CMS biosensor chip, where about 200 RU of the molecules bound to the chip. The anti-CD3 antibodies of the disclosure diluted with the HBS-EP buffer (Cat #: BR-1006-69, GE Life Sciences) at 120 μg/ml were respectively flowed through the chip. Chip regeneration was performed with pH1.5 Gly-HCl.

In test [9] the target is T2, CD3D&E protein (Cat #: CT038-H2508H, …). Put plainly: ELISA, coated CD3D&E. This is another data set of the same source.
The target of test [10] is T4, CD3 on Jurkat cells. Briefly: flow cytometry on Jurkat cells. As for the experimental part: as §4
The source holds these as a separate data set. In general terms: Flow cytometry measures light scatter and fluorescence of single cells or particles in a stream.

The target in test [11] is T2, CD3D&E protein (Cat #: CT038-H2508H, …). Briefly: SPR (BIAcore 8K), antibody captured by anti-human Fc, CD3D&E as analyte. As for the experimental part: Briefly, the mouse anti-human Fc antibodies were coupled to a CM5 biosensor chip. The anti-CD3 antibodies of the disclosure in the HBS-EP buffer (Cat #: BR-1006-69, GE Life Sciences) at the concentration of 1 μg/ml was flowed through the chip, where about 100 RU of the antibodies were captured by the mouse anti-human Fc antibodies. Serially diluted CD3D&E molecules (Cat #: CT038-H2508H, Sino Biological) in the HBS-EP buffer (Cat #: BR-1006-69, GE Life Sciences) (2-fold dilution starting at 20 μg/ml) were respectively flowed through the chip. Chip regeneration was performed with 3 M MgCl₂.

T2 sequence (P04234 22-105, form in doubt, chain 1 of 2): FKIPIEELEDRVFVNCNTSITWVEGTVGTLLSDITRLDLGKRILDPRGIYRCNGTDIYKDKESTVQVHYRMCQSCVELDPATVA
T2 sequence (P07766 23-126, form in doubt, chain 2 of 2): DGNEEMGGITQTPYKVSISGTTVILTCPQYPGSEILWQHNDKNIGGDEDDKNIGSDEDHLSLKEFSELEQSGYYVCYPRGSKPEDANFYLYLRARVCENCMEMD
T4 sequence (P04234 22-171, chain 1 of 2): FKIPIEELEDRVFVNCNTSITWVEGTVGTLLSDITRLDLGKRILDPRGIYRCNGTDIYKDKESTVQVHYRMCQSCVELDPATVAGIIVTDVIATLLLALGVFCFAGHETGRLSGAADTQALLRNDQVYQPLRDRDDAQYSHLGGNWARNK
T4 sequence (P07766 23-207, chain 2 of 2): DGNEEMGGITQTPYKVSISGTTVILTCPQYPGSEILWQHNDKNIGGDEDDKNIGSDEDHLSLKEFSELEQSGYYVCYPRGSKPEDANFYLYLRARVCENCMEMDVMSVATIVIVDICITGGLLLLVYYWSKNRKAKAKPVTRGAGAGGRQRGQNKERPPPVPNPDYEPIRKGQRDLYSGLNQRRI
T6 sequence (P07766 23-126 limits assumed, stated change not applied): as the sequence (P07766 23-126, form in doubt, chain 2 of 2) above
Chain of monkey BCMA on HEK293A/monkey BCMA cells (Q02223 other isoform, or with tags, fused parts or gaps): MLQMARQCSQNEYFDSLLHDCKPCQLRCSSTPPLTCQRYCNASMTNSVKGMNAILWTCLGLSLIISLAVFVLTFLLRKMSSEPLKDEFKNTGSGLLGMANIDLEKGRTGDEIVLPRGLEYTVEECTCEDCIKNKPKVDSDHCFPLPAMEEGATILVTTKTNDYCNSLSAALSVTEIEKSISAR

B1: anti-CD3/BCMA bispecific antibody MBS305-L-KIH (bispecific antibody, human IgG1, kappa, L234A L235A, N297A)
heavy 1: QVQLVQSGAEVKKPGASVKVSCKASGYTFTNHIIHWVRQAPGQGLEWMGYINPYPGYHGYNDKFSGRATMTSDTSTSTVYMELSSLRSEDTAVYYCARDGYYRDQDVLDYWGQGTLVTVSSASTKGPSVFPLAPSSKSTSGGTAALGCLVKDYFPEPVTVSWNSGALTSGVHTFPAVLQSSGLYSLSSVVTVPSSSLGTQTYICNVNHKPSNTKVDKKVEPKSCDKTHTCPPCPAPEAAGGPSVFLFPPKPKDTLMISRTPEVTCVVVDVSHEDPEVKFNWYVDGVEVHNAKTKPREEQYASTYRVVSVLTVLHQDWLNGKEYKCKVSNKALPAPIEKTISKAKGQPREPQVYTLPPSREEMTKNQVSLSCAVKGFYPSDIAVEWESNGQPENNYKTTPPVLDSDGSFFLVSKLTVDKSRWQQGNVFSCSVMHEALHNHYTQKSLSLSPGK
light 1: not shown
heavy 2: QVQLVQSGAEVKKPGASVKVSCKASGYTFTNHIIHWVRQAPGQGLEWMGYINPYPGYHGYNDKFSGRATMTSDTSTSTVYMELSSLRSEDTAVYYCARDGYYRDQDVLDYWGQGTLVTVSSGGGGSGGGGSGGGGSGGGGSDIQMTQSPSSLSASVGDRVTITCKASQDISQYLNWYQQKPGKAPKLLIYYTSGLHPGVPSRFSGSGSGTDFTFTISSLEPEDEATYYCQQGYALPWTFGQGTKLTAKRGGGGSGGGGSGGGGSEVQLVESGGGLVQPGRSLRLSCAASGFTFGDYAMHWVRQAPGKGLEWVSGISWNHGHIGYADSVKGRFTISRDNAKKSLYLQMNSLRAEDTALYYCAKDNSGYGHYYYGMDVWGQGTTVTVASASTKGPSVFPLAPSSKSTSGGTAALGCLVKDYFPEPVTVSWNSGALTSGVHTFPAVLQSSGLYSLSSVVTVPSSSLGTQTYICNVNHKPSNTKVDKKVEPKSCDKTHTCPPCPAPEAAGGPSVFLFPPKPKDTLMISRTPEVTCVVVDVSHEDPEVKFNWYVDGVEVHNAKTKPREEQYASTYRVVSVLTVLHQDWLNGKEYKCKVSNKALPAPIEKTISKAKGQPREPQVYTLPPSREEMTKNQVSLWCLVKGFYPSDIAVEWESNGQPENNYKTTPPVLDSDGSFFLYSKLTVDKSRWQQGNVFSCSVMHEALHNHYTQKSLSLSPGK
light 2: not shown
For the molecule B1, the EC50 came out at 0.0196 µg/mL in test [1]; 0.267 µg/mL in test [2]; 0.187 µg/mL in test [3]; 0.00301 µg/mL in the test with CD3 on Jurkat cells [4]; 0.289 µg/mL in test [7]. For the same molecule, the binding result in test [5] was “no binding (tested: about 30000 ng/ml (LOG10 about 4.5))”. In test [6], this molecule returned a Kd of 675 nM.

B2: anti-CD3D&E antibody D1E9, full-length human IgG1 (L234A/L235A/N297A)/kappa (antibody, V domains shown)
VH: EVQLVESGGGLVQPGRSLRLSCAASGFTFDDFAMHWVRQAPGKGLEWVSGITWNSGSVGYADSVKGRFTISRDNAKKSLYLQMNSLRAEDTALYYCAKDRSGYGHYYYGMDVWGQGTTVTVAS
VL: EIVMTQSPATLSVSPGERATLSCRASTSVSHNVAWYQQKPGQAPRLLIYGASTKVTGIPARFSGSGSGTEFTLTISSLQSEDFAVYYCQHYINWPLTFGGGTKVEIKR
As to B2, in [8], the binding result is “no binding (tested: 120 µg/ml)”. Also, the EC50 in test [9] was 0.0879 µg/mL; with CD3 on Jurkat cells [10], 0.0837 µg/mL. The affinity in [11], expressed as Kd, was 120 nM.

B3: anti-CD3D&E antibody D12A4, full-length human IgG1 (L234A/L235A/N297A)/kappa (antibody, V domains shown)
VH: EVQLVESGGGLVQPGRSLRLSCAASGFTFGDYAMHWVRQAPGKGLEWVSGISWNHGHIGYADSVKGRFTISRDNAKKSLYLQMNSLRAEDTALYYCAKDNSGYGHYYYGMDVWGQGTTVTVAS
VL: EIVMTQSPATLSVSPGERATLSCRASRSVSRNLAWYQQKPGQAPRLLIYGASTKPTGIPARFSGSGSGTEFTLTISSLQSEDFAVYYCQHYTNWPLRFGGGTKVEIKR
For B3, the binding result in test [8] was “no binding (tested: 120 µg/ml)”. Besides, the concentration for a half-maximal effect (EC50) worked out at 0.0226 µg/mL in test [9] and 0.11 µg/mL in the test with CD3 on Jurkat cells [10]. This molecule returned a dissociation constant Kd in [11] of 357 nM.

For orientation: EC50 means the concentration at which the effect is half-maximal. A word on the Kd: it is the concentration at which binding is half-saturated.
